1 molecule from patent US10196454B2, “Anti-PMEL17 antibodies and immunoconjugates” (GENENTECH, INC., priority 2012, dated 2019) can be followed below.

In test [1] the test system is human PMEL17. Description: FACS screening of anti-PMEL17 hybridoma antibodies on live cells. Type of test: binding. Particulars: parental PC3 cell line.
Test [2] deals with T1, human PMEL17 (Homo sapiens, UniProt P40967).
T1 construct: endogenous in cells; host or cells: SK-MEL-23, 1300mel, SKMEL5 (ATCC HTB-70), UACC257, normal melanocytes (Invitrogen); also PC3 stably expressing human PMEL17
T1 sequence (P40967 25-469): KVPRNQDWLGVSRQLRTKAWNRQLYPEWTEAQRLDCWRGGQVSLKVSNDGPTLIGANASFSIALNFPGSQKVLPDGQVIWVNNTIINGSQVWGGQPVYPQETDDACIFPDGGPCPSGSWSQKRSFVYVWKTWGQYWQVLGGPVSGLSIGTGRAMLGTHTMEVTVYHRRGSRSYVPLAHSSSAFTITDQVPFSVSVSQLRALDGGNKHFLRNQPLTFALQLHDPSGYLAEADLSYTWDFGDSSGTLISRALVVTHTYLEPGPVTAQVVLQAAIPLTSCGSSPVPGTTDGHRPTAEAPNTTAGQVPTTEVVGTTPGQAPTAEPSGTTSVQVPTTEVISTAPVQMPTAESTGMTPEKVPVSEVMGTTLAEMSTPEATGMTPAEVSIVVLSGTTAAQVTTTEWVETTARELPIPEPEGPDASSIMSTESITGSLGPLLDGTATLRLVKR
T1 sequence (P40967 470-661): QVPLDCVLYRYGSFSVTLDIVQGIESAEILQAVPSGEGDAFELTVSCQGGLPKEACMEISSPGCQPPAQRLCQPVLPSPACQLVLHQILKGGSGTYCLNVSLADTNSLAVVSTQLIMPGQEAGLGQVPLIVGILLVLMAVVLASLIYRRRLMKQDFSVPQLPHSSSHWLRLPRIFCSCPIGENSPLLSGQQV
Described as above. In kind it is binding. The note with it: live melanoma cells, normal human melanocytes, PC3 cell line stably expressing PMEL17 cDNA.

Test [3] relates to rat PMEL17. Description: Species cross-reactivity by FACS, 293S cells stably transfected with gD tagged PMEL17. In kind it is binding. Particulars: 10 μg/ml antibody. The protocol:
(§1) Antibody 17A9 was tested to determine if it cross-reacts with PMEL17 from species other than human. […] All of the sequences include the signal sequence except for the cynomolgus monkey PMEL17. Residues that are identical among all four species are indicated by asterisks (*). In the region where the rat sequence has a deletion, residues that are identical among the remaining three species are indicated by a plus (+). Binding to each species of PMEL17 was determined by FACS analysis using 293S cells stably transfected with an N-terminal gD tagged PMEL17 (human, cynomolgus monkey, rat, or mouse PMEL17); stained with 10 μg/ml 17A9 antibody; and detected with R-Phycoerythrin conjugated goat anti-mouse antibody.

The target of test [4] is T2, mouse PMEL17 (Mus musculus, UniProt Q60696).
T2 construct: gD tag (N); expressed in transfected cells
T2 sequence (Q60696 24-626): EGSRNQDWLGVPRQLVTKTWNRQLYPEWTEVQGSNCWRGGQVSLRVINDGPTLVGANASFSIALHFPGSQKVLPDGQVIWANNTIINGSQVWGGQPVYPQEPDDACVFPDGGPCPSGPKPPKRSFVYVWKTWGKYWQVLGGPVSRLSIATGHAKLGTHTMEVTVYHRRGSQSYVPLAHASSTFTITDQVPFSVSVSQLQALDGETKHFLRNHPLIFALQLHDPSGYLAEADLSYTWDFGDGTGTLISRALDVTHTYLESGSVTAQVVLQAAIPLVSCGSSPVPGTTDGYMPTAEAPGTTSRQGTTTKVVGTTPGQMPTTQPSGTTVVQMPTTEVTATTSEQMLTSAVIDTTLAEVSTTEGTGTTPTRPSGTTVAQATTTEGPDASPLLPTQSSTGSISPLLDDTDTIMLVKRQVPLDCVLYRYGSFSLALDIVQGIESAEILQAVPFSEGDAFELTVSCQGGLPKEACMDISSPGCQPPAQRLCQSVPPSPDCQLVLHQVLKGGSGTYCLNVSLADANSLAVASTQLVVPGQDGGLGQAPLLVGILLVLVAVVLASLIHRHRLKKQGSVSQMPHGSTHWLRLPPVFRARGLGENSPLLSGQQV
The test is described as above. In kind it is binding. The note with it: 10 μg/ml antibody. On the procedure: as §1

Test [5] concerns cynomolgus monkey PMEL17. The description is as above. In kind it is binding. The note with it: 10 μg/ml antibody. The protocol:
as §1

In test [6] the test system is 1300mel melanoma cells. Description: Internalization of anti-PMEL17 antibody, co-staining with lysosomal marker LAMP1. Type of test: cell-based.

Chain of cynomolgus monkey PMEL17 (as listed by the source): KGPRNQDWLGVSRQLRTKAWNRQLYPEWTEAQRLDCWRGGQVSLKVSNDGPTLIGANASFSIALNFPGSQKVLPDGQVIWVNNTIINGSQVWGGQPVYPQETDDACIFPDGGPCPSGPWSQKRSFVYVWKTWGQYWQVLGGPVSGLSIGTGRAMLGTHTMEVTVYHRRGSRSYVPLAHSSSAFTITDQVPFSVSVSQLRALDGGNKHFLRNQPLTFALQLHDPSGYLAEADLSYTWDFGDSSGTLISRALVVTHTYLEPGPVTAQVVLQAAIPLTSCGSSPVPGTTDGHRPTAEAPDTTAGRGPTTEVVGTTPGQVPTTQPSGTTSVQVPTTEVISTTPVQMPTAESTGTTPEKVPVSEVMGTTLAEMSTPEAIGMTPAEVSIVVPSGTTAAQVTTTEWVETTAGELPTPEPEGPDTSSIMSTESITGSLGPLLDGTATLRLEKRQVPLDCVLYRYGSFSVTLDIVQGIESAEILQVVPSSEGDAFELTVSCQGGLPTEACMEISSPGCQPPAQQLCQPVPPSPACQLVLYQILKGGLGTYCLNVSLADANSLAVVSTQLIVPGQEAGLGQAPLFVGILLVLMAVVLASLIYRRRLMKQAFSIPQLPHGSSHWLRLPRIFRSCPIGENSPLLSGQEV

B1: 17A9 (antibody, listed as Mus musculus, V domains shown)
VH: EVQLQQSGPELVKPGASMKISCKSSGYSFTRYTMNWVKQSHGKNLEWIGVINPYNGGTVYNQKFKGKATLTVDKSSSTAYMELLSLTSEDSAVYYCARTDYDGYAMDYWGQGTSVTVSS
VL: DVQITQSPSYLAASPGETITINCRATKSISKYLAWYQEQPGKTNNLLIYSGSTLQSGIPSRFSGSGSGTDFTLTISSLEPEDFAMYYCQQHNEYPYTFGSGTKLEIK
Take B1: the “FACS reactivity with parental PC3 cell line” value in test [1] is “not the parental PC3 cell line”. For the same molecule, the “FACS reactivity with live cells expressing PMEL17” value in test [2] is recorded as “reacted strongly”. In test [3], the “binding to rat PMEL17 by FACS” value is on record as “bind”. For the same molecule, the “binding to mouse PMEL17 by FACS” value in test [4] is reported as “bind”. Besides, in test [5], the “binding to cynomolgus monkey PMEL17 by FACS” value is listed as “bind”. In test [6] (2 μg/ml, 2 hours or 20 hours, 37° C.), the “overlap of antibody and LAMP1 staining within the cells” value was “considerable overlap”. In addition, the “uptake into additional PMEL17+ melanoma cell lines” value in test [6] (526mel, SK-MEL-5, UACC257) is “Rapid uptake”.
